The text below walks through data of patent US20120301878A1 (Memorial Sloan Kettering, published 2012).

In this experiment the target is T1, FLAG-tagged p61 BRAF(V600E/R509H) (Homo sapiens, UniProt P15056 1-168; P15056 381-766).
T1 construct: domain: exons 1-3;domain: exons 9-18; Expressed in 293H cells; also called dimerization-deficient mutant; not shown: FLAG tag
Kind of experiment: co-immunoprecipitation of Flag- and V5-tagged forms from 293H cell lysate (FIG. 2C). The procedure: FIG. 2C. To compare levels of dimerization, 293H cells co-expressing FLAG tagged and c-terminal V5-tagged p61BRAF(V600E), full length BRAF(V600E) and the corresponding dimerization-deficient mutants p61 BRAF(V600E/R509H) and BRAF(V600E/R509H) were lysed followed by immunoprecipitation with FLAG antibody. Western blots with V5 or FLAG antibodies were performed as indicated.
The inventors of the present invention then determined whether deletion of exons 4-8 promoted dimerization of p61 BRAF(V600E). To determine levels of dimerization, the inventors ectopically co-expressed two constructs encoding the same protein; either p61 BRAF(V600E) or full-length BRAF(V600E) with different tags (Flag or V5).

B1: V5-tagged p61 BRAF(V600E/R509H) (enzyme, Homo sapiens, UniProt P15056 1-168, looked up)
chain: MAALSGGGGGGAEPGQALFNGDMEPEAGAGAGAAASSAADPAIPEEVWNIKQMIKLTQEHIEALLDKFGGEHNPPSIYLEAYEEYTSKLDALQQREQQLLESLGNGTDFSVSSSASMDTVTSSSSSSLSVLPSSLSVFQNPTDVARSNPKSPQKPIVRVFLPNKQRTVDLIRDQGFRGDGGSTTGLSATPPASLPGSLTNVKALQKSPGPQRERKSSSSSEDRNRMKTLGRRDSSDDWEIPDGQITVGQRIGSGSFGTVYKGKWHGDVAVKMLNVTAPTPQQLQAFKNEVGVLRKTHHVNILLFMGYSTKPQLAIVTQWCEGSSLYHHLHIIETKFEMIKLIDIARQTAQGMDYLHAKSIIHRDLKSNNIFLHEDLTVKIGDFGLATEKSRWSGSHQFEQLSGSILWMAPEVIRMQDKNPYSFQSDVYAFGIVLYELMTGQLPYSNINNRDQIIFMVGRGYLSPDLSKVRSNCPKAMKRLMAECLKKKRDERPLFPQILASIELLARSLPKIHRSASEPSLNRAGFQTEDFSLYACASPKTPIQAGGYGAFPVH
notes: domain: exons 1-3;domain: exons 9-18; Expressed in 293H cells; also called dimerization-deficient mutant; not shown: V5 tag at the C-terminus
Regarding B1, the binding result is “no binding”.
